The text below walks through data of patent US20250000991A1, “NECTIN-4 ANTIBODIES AND ANTIBODY-DRUG CONJUGATES” (Eli Lilly and Company, priority 2023, published 2025).

A word on the IC50: it is the concentration that inhibits the measured activity by half.

The subject of one assay is cyno Nectin-4. The assay can be described thus: Surface plasmon resonance (Biacore 8K+) binding of nectin-4 ADCs to cyno Nectin-4. The note with it: cyno Nectin-4, 37° C., ADC Formula XI DAR 8, n=1. The method, then:
(§1) An anti-human Fc sensor surface was prepared by amine-coupling of goat anti-human IgG Fc (Southern Biotech Cat. No. 2014-01, Birmingham, AL) to a Biacore Series S CM4 (Cytiva Cat. No. BR-100534) sensor surface at 25° C. For immobilization, a running buffer of 10 mM HEPES, 150 mM NaCl, 0.05% Tween-20, pH 7.4 was used. Flow cells 1 & 2 of all 8 channels were activated with a 1:1 (v/v) mixture of 400 mM 1-Ethyl-3-(3-dimethylaminopropyl) carbodiimide hydrochloride (EDC) and […] N-Hydroxysuccinimide (NHS) at a flow rate of 10 uL/min for 7 minutes. Then the anti-human IgG Fc capture reagent was coupled to the sensor surface (diluted to 50 μg/mL in 10 mM Acetate pH 4.5 buffer) by injecting it in all flow cells and channels at a flow rate of 10 uL/min for 7 minutes. Remaining active groups were blocked by injecting 100 mM ethylenediamine (in 200 mM Borate buffer, pH 8.5) in all flow cells and channels at a flow rate of 10 uL/min for 7 minutes. All channels and flow cells were then preconditioned using three consecutive 1-minute injections of 75 mM phosphoric acid at 10 uL/min.
(§2) In each analysis cycle, a different ADC was captured on flow cell 2 of each channel by injecting it at 5 μg/mL and 10 uL/min. After capture, the same analyte was injected on flow cells 1 and 2 in all 8 channels for 2 minutes at 30 uL/n and dissociation was monitored for 10 minutes. After dissociation, all surfaces were regenerated with three 1-minute injections of 5 mM phosphoric acid at 10 uL/min. ADC capture and analyte cycles were repeated to obtain analyte binding of each ADC at concentrations of 0, 2.5, 7.4, 22, 67, 200 and 600 nM nectin-4.
(§3) Sensorgram data were fit globally with the default 1:1 binding model in Biacore Insight Evaluation Software v3.0.12.15655.
(Surface plasmon resonance follows binding to a sensor surface in real time, without labels.)

Another assay deals with T1, human Nectin-4 (Homo sapiens, UniProt Q96NY8).
T1 construct: His tag; purchased Acro Biosystems NE4-H52H3
T1 sequence (Q96NY8 32-510): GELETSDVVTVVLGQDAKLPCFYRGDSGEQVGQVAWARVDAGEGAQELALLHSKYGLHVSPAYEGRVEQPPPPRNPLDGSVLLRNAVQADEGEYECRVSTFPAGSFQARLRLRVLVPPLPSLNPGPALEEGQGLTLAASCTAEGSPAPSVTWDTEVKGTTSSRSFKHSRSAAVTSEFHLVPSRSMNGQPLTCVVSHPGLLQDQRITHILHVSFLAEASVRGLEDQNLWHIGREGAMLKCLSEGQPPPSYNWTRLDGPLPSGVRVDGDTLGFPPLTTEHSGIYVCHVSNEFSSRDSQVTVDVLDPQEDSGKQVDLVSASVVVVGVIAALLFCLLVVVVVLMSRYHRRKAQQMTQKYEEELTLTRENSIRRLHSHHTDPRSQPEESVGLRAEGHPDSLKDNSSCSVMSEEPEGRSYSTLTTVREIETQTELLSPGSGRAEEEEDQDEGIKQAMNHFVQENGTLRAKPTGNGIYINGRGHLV
In words: Surface plasmon resonance (Biacore 8K+) binding of nectin-4 ADCs to human Nectin-4. The note with it: human Nectin-4, 37° C., ADC Formula XI DAR 8; n=3 mean ± SD, n=2 replicate values. How it is done:
as §1, §2, §3

Assay [1] deals with T24 mScarlet clone 5 Nectin-4 negative cells. The assay can be described thus: Bystander killing of T24-mScarlet clone 5 cells co-cultured with T24-human nectin4 clone108 (imaging). The assay is classed as cell-based. The note with it: T24-mScarlet clone5 : T24-human nectin4 clone108 9:1, 5 days, ADC Formula XI DAR 8; read-out: IC50 of bystander effect. How it is done:
T24 cell line was engineered to express mScarlet and clonally selected to test in bystander assay. T24-mScarlet clone5 and T24-human nectin4 clone108 were mixed and seeded at a total of 1000 cells/well/100 ul with a ratio of 9:1 in culture medium (McCoy's 5A+1× GlutaMax+10% Heat Inactivated Fetal Bovine Serum+400 μg/ml G418) in flat clear bottom 96-well plates. T24 mScarlet clone 5 cells were negative for nectin-4 expression. Plates were incubated at 37° C. with 5% CO2 overnight. Next day, ADCs were added at final working concentration from 50 nM, 1:4 serially diluted in culture medium. Plates were covered with Breathe-Easy® sealing membrane, placed in BioSpa and scanned in Cytation5 every day for 5 days.
Images of T24-mScarlet cells were captured and analyzed by Cytation5 with Gen5 Image Prime 3.11. Percentage of T24-mScarlet cell killing was calculated by decreased Integrated Intensity (area×mean intensity), normalized to zero hour and no treatment. Data was graphed and analyzed using GraphPad Prism version 9.5.1. IC50 was determined via log(inhibitor) vs. response-variable slope (four parameters) curve fitting.

A further assay has as its system rat Nectin-4. The assay can be described thus: Surface plasmon resonance (Biacore 8K+) binding of nectin-4 ADCs to rat Nectin-4. To be noted: rat Nectin-4, 37° C., ADC Formula XI DAR 8, n=1. The method, then:
as §1, §2, §3

In assay [2] the test system is UMUC3-Luc-GFP + UMUC3-hNectin4 clone F7. In words: Bystander killing of UMUC3-Luc-GFP cells co-cultured with UMUC3-hNectin4 clone F7 (ONE-Glo). The format is cell-based, human. To be noted: UMUC3-hNectin-4 cloneF7/UMUC3-Luciferase-GFP 4:1, 5 days. The method, then:
UMUC3 cell line was engineered to express human Nectin4 and two clonal populations with different levels of expression were selected. In flat white clear-bottom 96-well plates, UMUC3-hNectin4 clone F7/UMUC3-Luc-GFP cells were mixed and seeded at a total of 1500 cells/well/100 ul with a ratio of 4:1 in assay medium (MEM+1× GlutaMax+10% Heat Inactivated Fetal Bovine Serum+1 mM sodium pyruvate). UMUC3-hNectin4 clone E3/UMUC3-Luc-GFP cells were mixed and seeded at a total of 2100 cells/well/100 ul with a ratio of 6:1 in assay medium. UMUC3-Luc-GFP cells were negative for nectin-4 expression. Plates were incubated at 37° C. with 5% CO2 overnight. […] Plates were read after 5-days treatment using ONE-GloTM Luciferase Assay System. […] Luminescence was read in the SpectraMax M5e. […] Percentage of UMUC3-Luc-GFP killing was calculated against no treatment as 0%. Data was graphed and analyzed using Graphpad Prism version 9.5.1. IC50 was determined via log(inhibitor) vs. response (three parameters) curve fitting for bystander activity and log(inhibitor) vs. response (four parameters) for free payload cytotoxicity. […] In experiments run as essentially described herein, the bystander effects of four nectin-4 ADCs described herein and enfortumab vedotin were evaluated using the UMUC3-hNectin-4 cloneF7/UMUC3-Luciferase-GFP cell pair. […]

Values joined by “and” are separate entries in the source; they are usually repeats but may differ in a detail not shown here. Identical values can stand only once.

B1: Ab1a (conjugate)
heavy: QVQLVQSGAQVKKPGASVKVSCKASGYTFTGYYIHWVRQAPGQGLEWMGWINPNSGGTNYAQKFQGRVTMTRDTSISTAYMELSRLRSDDTAVYFCAREDWDFDYWGQGTLVTVSSASTKGPSVFPLAPSSKSTSGGTAALGCLVKDYFPEPVTVSWNSGALTSGVHTFPAVLQSSGLYSLSSVVTVPSSSLGTQTYICNVNHKPSNTKVDKRVEPKSCDKTHTCPPCPAPEAAGGPSVFLFPPKPKDTLMISRTPEVTCVVVSVSHEDPEVKFNWYVDGVEVHNAKTKPREEQYNSTYRVVSVLTVLHQDWLNGKEYKCKVSNKALPAPIEKTISKAKGQPREPQVYTLPPSREEMTKNQVSLTCLVKGFYPSDIAVEWESNGQPENNYKTTPPVLDSDGSFFLYSKLTVDKSRWQQGNVFSCSVMHEALHNHYTQKSLSLSPGK
light: EIVLTQSPGTLSLSPGERATLSCRTSQSVSSSYLAWYQQKPGQAPRLLIYGASNRATDIPDRFSGSGSGTDFTLTINRLEPEDFAVYYCQQYGSSPITFGQGTRLEIKRTVAAPSVFIFPPSDEQLKSGTASVVCLLNNFYPREAKVQWKVDNALQSGNSQESVTEQDSKDSTYSLSSTLTLSKADYEKHKVYACEVTHQGLSSPVTKSFNRGEC
On to B1, for which the ka in the assay with cyno Nectin-4 is 310000 M⁻¹ s⁻¹; with human Nectin-4, 2.83 × 10^5, 1/Ms and 4.24 × 10^5 1/Ms; in the assay on rat Nectin-4, 252000 M⁻¹ s⁻¹. In addition, the kd is 0.026 s⁻¹ at cyno Nectin-4; 4.02 × 10^−2, 1/s and 3.08 × 10^−2 1/s with human Nectin-4; 0.0453 s⁻¹ at rat Nectin-4. Also, in assay [1], the IC50 was determined as 0.041 nM. Besides, the “Bystander effect (in words)” value in assay [2] is reported as “potent bystander effects”.
